Experimental data reported in patent publication US20120058906A1 (published 2012).
Blank lines part the entries; values can stand above or below the binder they belong to.

Columns and labels:
[1] = target: T1, rHuman Erythropoietin R/Fc Chimera, CF (R&D Systems Cat#963-ER) (human, UniProt P19235 25-250); assay: ECL (MSD multi-spot), antigen on plate, Fab 50 nM
T1 construct: Bought Fc chimera; also called EPO R/Fc; Epo R; not shown: Fc of the bought chimera
T1 sequence: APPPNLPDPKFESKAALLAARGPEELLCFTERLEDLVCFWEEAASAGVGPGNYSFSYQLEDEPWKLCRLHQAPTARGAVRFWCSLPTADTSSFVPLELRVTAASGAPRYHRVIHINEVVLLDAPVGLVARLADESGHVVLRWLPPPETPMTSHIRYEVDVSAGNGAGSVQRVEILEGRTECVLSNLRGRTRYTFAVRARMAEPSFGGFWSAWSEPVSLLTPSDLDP

[2] = target: T2, rHuman Notch-1/Fc Chimera, CF (R&D Systems Cat#3647-TK) (human, UniProt P46531 19-526); assay: ECL (MSD multi-spot), antigen on plate, Fab 50 nM
T2 construct: Bought Fc chimera; not shown: Fc of the bought chimera

[3] = target: T3, Recombinant Human DLL4 (R&D Systems Cat#1506-D4/CF) (human, UniProt Q9NR61 27-524); assay: ECL (MSD multi-spot), antigen on plate, Fab 50 nM
T3 construct: Bought recombinant protein; also called delta-like protein 4

[4] = target: T4, rHuman ErbB2/Fc Chimera, CF (R&D Systems Cat#1129-ER) (human, UniProt P04626 23-652); assay: ECL (MSD multi-spot), antigen on plate, Fab 50 nM
T4 construct: Bought Fc chimera; also called HER2/neu; not shown: Fc of the bought chimera

[5] = target: T5, rHuman IGF-1 sR (insulin-like growth factor-1 soluble receptor), CF (R&D Systems Cat#391-GR) (human, UniProt P08069 31-932); assay: ECL (MSD multi-spot), antigen on plate, Fab 50 nM
T5 construct: Bought soluble receptor; also called IGF-R1

[6] = target: T6, rHuman P-Cadherin/Fc Chimera, CF (R&D Systems Cat#861-PC) (human, UniProt P22223 108-654); assay: ECL (MSD multi-spot), antigen on plate, Fab 50 nM
T6 construct: Bought Fc chimera; also called CDH3; not shown: Fc of the bought chimera

[7] = target: T7, rHuman EGF R/Fc Chimera, CF (R&D Systems Cat#344-ER) (human, UniProt P00533 25-645); assay: ECL (MSD multi-spot), antigen on plate, Fab 50 nM
T7 construct: Bought Fc chimera; also called ErbB-1; not shown: Fc of the bought chimera

[8] = target: T8, rHuman CD44/Fc Chimera, CF (R&D Systems Cat#3660-CD) (human, UniProt P16070 21-220); assay: ECL (MSD multi-spot), antigen on plate, Fab 50 nM
T8 construct: Bought Fc chimera; not shown: Fc of the bought chimera

[9] = target: T9, rHuman HGF R/c-MET/Fc Chimera, CF (R&D Systems Cat#358-MT/CF) (human, UniProt P08581 25-932); assay: ECL (MSD multi-spot), antigen on plate, Fab 50 nM
T9 construct: Bought Fc chimera; also called HGF R/Fc; not shown: Fc of the bought chimera

[10] = target: T1, rHuman Erythropoietin R/Fc Chimera, CF …; assay: ECL (MSD multi-spot), antigen on plate, Fab 10 nM;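 also: blank spot per well as comparator with Hit at signal to blank ratio of 4 or more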
[11] = target: T2, rHuman Notch-1/Fc Chimera, CF (R&D …); assay: ECL (MSD multi-spot), antigen on plate, Fab 10 nM;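 also: blank spot per well as comparator with Hit at signal to blank ratio of 4 or more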
[12] = target: T4, rHuman ErbB2/Fc Chimera, CF (R&D …); assay: ECL (MSD multi-spot), antigen on plate, Fab 10 nM;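 also: blank spot per well as comparator with Hit at signal to blank ratio of 4 or more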
[13] = target: T8, rHuman CD44/Fc Chimera, CF (R&D Systems …); assay: ECL (MSD multi-spot), antigen on plate, Fab 10 nM;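 also: blank spot per well as comparator with Hit at signal to blank ratio of 4 or more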
[14] = target: T1, rHuman Erythropoietin R/Fc Chimera, CF …; assay: ECL (MSD multi-spot), antigen on plate, Fab 2 nM;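 also: blank spot per well as comparator with Hit at signal to blank ratio of 4 or more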
[15] = target: T3, Recombinant Human DLL4 (R&D Systems …); assay: ECL (MSD multi-spot), antigen on plate, Fab 2 nM;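 also: blank spot per well as comparator with Hit at signal to blank ratio of 4 or more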
[16] = target: T4, rHuman ErbB2/Fc Chimera, CF (R&D …); assay: ECL (MSD multi-spot), antigen on plate, Fab 2 nM;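 also: blank spot per well as comparator with Hit at signal to blank ratio of 4 or more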
[17] = target: T5, rHuman IGF-1 sR (insulin-like growth …); assay: ECL (MSD multi-spot), antigen on plate, Fab 2 nM;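 also: blank spot per well as comparator with Hit at signal to blank ratio of 4 or more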
[18] = target: T6, rHuman P-Cadherin/Fc Chimera, CF (R&D …); assay: ECL (MSD multi-spot), antigen on plate, Fab 2 nM;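 also: blank spot per well as comparator with Hit at signal to blank ratio of 4 or more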
[19] = target: T7, rHuman EGF R/Fc Chimera, CF (R&D …); assay: ECL (MSD multi-spot), antigen on plate, Fab 2 nM;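 also: blank spot per well as comparator with Hit at signal to blank ratio of 4 or more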
[20] = target: T8, rHuman CD44/Fc Chimera, CF (R&D Systems …); assay: ECL (MSD multi-spot), antigen on plate, Fab 2 nM
[21] = target: T9, rHuman HGF R/c-MET/Fc Chimera, CF (R&D …); assay: ECL (MSD multi-spot), antigen on plate, Fab 2 nM

ECL signal [1]: 533 ECL signal
ECL signal [2]: 389 ECL signal
ECL signal [3]: 201000 ECL signal
ECL signal [4]: 470 ECL signal
ECL signal [5]: 399 ECL signal
ECL signal [6]: 470 ECL signal
ECL signal [7]: 489 ECL signal
ECL signal [8]: 345 ECL signal
ECL signal [9]: 312 ECL signal
B1: Fab VH1-46_IGHD6-6*01_IGHJ1*01_S102A_S103P_S104Y_H111Y & L6_IGKJ1*01 (Fab, V domains shown)
VH: QVQLVQSGAEVKKPGASVKVSCKASGYTFTSYYMHWVRQAPGQGLEWMGIINPSGGSTSYAQKFQGRVTMTRDTSTSTVYMELSSLRSEDTAVYYCAREEYAPYSAEYFQYWGQGTLVTVSS
VL: not shown
notes: Fab made in E. coli; The heavy chain also carries CH1 with Flag and His tags from Plasmid A, and the light chain carries kappa CL from Plasmid C

ECL signal [10]: 392 ECL signal
ECL signal [11]: 280 ECL signal
ECL signal [12]: 136 ECL signal
ECL signal [13]: 212 ECL signal
B2: Fab VH1-46_IGHD6-6*01_IGHJ1*01_S102A_S103P_S104F & L6_IGKJ1*01_S28P (Fab, V domains shown)
VH: QVQLVQSGAEVKKPGASVKVSCKASGYTFTSYYMHWVRQAPGQGLEWMGIINPSGGSTSYAQKFQGRVTMTRDTSTSTVYMELSSLRSEDTAVYYCAREEYAPFSAEYFQHWGQGTLVTVSS
VL: EIVLTQSPATLSLSPGERATLSCRASQPVSSYLAWYQQKPGQAPRLLIYDASNRATGIPARFSGSGSGTDFTLTISSLEPEDFAVYYCQQRSNWPPWTFGQGTKVEIKR
notes: Fab

ECL signal [14]: 326 ECL signal
ECL signal [15]: 10500 ECL signal
ECL signal [16]: 337 ECL signal
ECL signal [17]: 222 ECL signal
ECL signal [18]: 351 ECL signal
ECL signal [19]: 197 ECL signal
ECL signal [20]: 146 ECL signal
ECL signal [21]: 183 ECL signal
B3: Fab VH1-46_IGHD6-6*01_IGHJ1*01_S102A_S103P_S104F & L6_IGKJ1*01_S31K (Fab, V domains shown)
VH: QVQLVQSGAEVKKPGASVKVSCKASGYTFTSYYMHWVRQAPGQGLEWMGIINPSGGSTSYAQKFQGRVTMTRDTSTSTVYMELSSLRSEDTAVYYCAREEYAPFSAEYFQHWGQGTLVTVSS
VL: EIVLTQSPATLSLSPGERATLSCRASQSVSKYLAWYQQKPGQAPRLLIYDASNRATGIPARFSGSGSGTDFTLTISSLEPEDFAVYYCQQRSNWPPWTFGQGTKVEIKR
notes: Fab
